Test results published in article PMC5429695.

Tests used:
[1] = target: RfDoc1a, group 1a dockerin, thioredoxin A fusion, wild type (R. flavefaciens FD-1); assay: ITC; 308 K; dockerin in the cell (stirred at 307 revolutions/min) titrated with 28 injections of 10 uL cohesin at 220 s intervals; proteins in 50 mM HEPES pH 7.5, 0.5 mM CaCl2, 0.5 mM TCEP; single-site model
[2] = target: RfDoc1b, group 1b dockerin, thioredoxin A fusion, wild type (R. flavefaciens FD-1); assay: as above

Ka [1] | dH [1] | stoichiometry N [1] | Ka [2] | dH [2] | stoichiometry N [2] | Substance
5.03e+08 M⁻¹ | -38.9 kcal/mol | 1 | 2.67e+07 M⁻¹ | -61.2 kcal/mol | 1 | RfCohScaA, ScaA cohesin with C-terminal hexa-histidine tag (domain or fragment)
1.65e+06 M⁻¹ | -66.9 kcal/mol | 1 | – | – | – | RfCohScaB3 E84A + H121A, C-terminal hexa-histidine tag (domain or fragment)
1.53e+07 M⁻¹ | -55 kcal/mol | 1 | – | – | – | RfCohScaB3 E84A + N124A, C-terminal hexa-histidine tag (domain or fragment)
3.62e+07 M⁻¹ | -55.5 kcal/mol | 1 | – | – | – | RfCohScaB3 E84A, C-terminal hexa-histidine tag (domain or fragment)
2.28e+06 M⁻¹ | -46.4 kcal/mol | 1 | – | – | – | RfCohScaB3 H121A + N124A, C-terminal hexa-histidine tag (domain or fragment)
2.66e+07 M⁻¹ | -52.6 kcal/mol | 1 | – | – | – | RfCohScaB3 H121A, C-terminal hexa-histidine tag (domain or fragment)
4.23e+08 M⁻¹ | -57.4 kcal/mol | 1 | – | – | – | RfCohScaB3 K77A, C-terminal hexa-histidine tag (domain or fragment)
7.59e+06 M⁻¹ | -51.9 kcal/mol | 1 | – | – | – | RfCohScaB3 L79A, C-terminal hexa-histidine tag (domain or fragment)
1.1e+08 M⁻¹ | -58.6 kcal/mol | 1 | – | – | – | RfCohScaB3 N68A, C-terminal hexa-histidine tag (domain or fragment)
2.08e+07 M⁻¹ | -51.8 kcal/mol | 1 | – | – | – | RfCohScaB3 N75A + E84A, C-terminal hexa-histidine tag (domain or fragment)
2.49e+06 M⁻¹ | -50.8 kcal/mol | 1 | – | – | – | RfCohScaB3 N75A + H121A, C-terminal hexa-histidine tag (domain or fragment)
1.86e+06 M⁻¹ | -56.3 kcal/mol | 1 | – | – | – | RfCohScaB3 N75A + N124A, C-terminal hexa-histidine tag (domain or fragment)
9.09e+07 M⁻¹ | -52.7 kcal/mol | 1 | – | – | – | RfCohScaB3 N75A, C-terminal hexa-histidine tag (domain or fragment)
5.54e+07 M⁻¹ | -52.8 kcal/mol | 1 | – | – | – | RfCohScaB3 N124A, C-terminal hexa-histidine tag (domain or fragment)
